# Data reported in article PMC5428714, “The structures of a naturally empty cowpea mosaic virus particle and its genome-containing counterpart by cryo-electron microscopy” (Scientific Reports, 2017).
# T1: Cowpea mosaic virus (CPMV) Large (L) coat protein (Cowpea mosaic virus, UniProt P03599 460-833)
# T1 construct: Large (L) coat protein of Cowpea mosaic virus, cut from the RNA-2-encoded precursor polyprotein (VP60) by the 24 K viral proteinase; numbers count on: the mature L subunit; 60 copies each of L and S form the icosahedral capsid; also called L subunit; large coat protein subunit; source: for the cleaved eVLP map: recombinant eVLP from transient expression of VP60 and the 24 K protease
# T1 sequence: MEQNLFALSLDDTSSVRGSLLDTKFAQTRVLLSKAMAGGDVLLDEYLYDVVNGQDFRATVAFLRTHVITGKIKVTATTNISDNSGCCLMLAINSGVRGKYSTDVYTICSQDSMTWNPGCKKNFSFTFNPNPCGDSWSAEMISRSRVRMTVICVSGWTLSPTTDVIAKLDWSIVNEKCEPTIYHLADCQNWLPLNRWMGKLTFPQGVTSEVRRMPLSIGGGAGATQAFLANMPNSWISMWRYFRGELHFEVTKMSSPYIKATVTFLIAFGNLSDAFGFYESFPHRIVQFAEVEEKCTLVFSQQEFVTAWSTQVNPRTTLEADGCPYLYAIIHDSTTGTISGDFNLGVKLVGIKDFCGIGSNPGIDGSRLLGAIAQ
# B1: Cowpea mosaic virus (CPMV) Small (S) coat protein with the C terminal extension (as in CPMV-T) (natural protein)
# chain: GPVCAEASDVYSPCMIASTPPAPFSDVTAVTFDLINGKITPVGDDNWNTHIYNPPIMNVLRTAAWKSGTIHVQLNVRGAGVKRADWDGQVFVYLRQSMNPESYDARTFVISQPGSAMLNFSFDIIGPNSGFEFAESPWANQTTWYLECVATNPRQIQQFEVNMRFDPNFRVAGNILMPPFPLSTETPPLLKFRFRDIERSKRSVMVGHTATAA
# notes: Small (S) coat protein of Cowpea mosaic virus, cut from the RNA-2-encoded precursor polyprotein (VP60), with the 24 amino acid C terminal extension kept; density to Thr184 and from Pro188 to Ile197; numbers count on: the mature S subunit; Naturally empty particles are cleaved more slowly and keep the C-terminus for longer; residues after Ile197 are not seen in the map; also called S subunit; …
# How the values were obtained:
# [1] = biological target: the molecule itself; test: cryo-EM structure; purified CPMV-T particles (naturally empty capsid assembled in planta), ~1.92 mg/ml, vitrified at 4 °C; icosahedral (I3) symmetry imposed; 4.25 Å
# [2] = biological target: T1, Cowpea mosaic virus (CPMV) Large (L) …; test: as above; details: both partners purified
binder,measurement,setting,value
B1,binding result,[1],binds
same,binding result,[2],binds
